Values of other authors, collected in publication PMC10518620.

Target: C3aR (Homo sapiens) (UniProt Q16581)
UniProt Q16581, sequence (Q16581 whole entry): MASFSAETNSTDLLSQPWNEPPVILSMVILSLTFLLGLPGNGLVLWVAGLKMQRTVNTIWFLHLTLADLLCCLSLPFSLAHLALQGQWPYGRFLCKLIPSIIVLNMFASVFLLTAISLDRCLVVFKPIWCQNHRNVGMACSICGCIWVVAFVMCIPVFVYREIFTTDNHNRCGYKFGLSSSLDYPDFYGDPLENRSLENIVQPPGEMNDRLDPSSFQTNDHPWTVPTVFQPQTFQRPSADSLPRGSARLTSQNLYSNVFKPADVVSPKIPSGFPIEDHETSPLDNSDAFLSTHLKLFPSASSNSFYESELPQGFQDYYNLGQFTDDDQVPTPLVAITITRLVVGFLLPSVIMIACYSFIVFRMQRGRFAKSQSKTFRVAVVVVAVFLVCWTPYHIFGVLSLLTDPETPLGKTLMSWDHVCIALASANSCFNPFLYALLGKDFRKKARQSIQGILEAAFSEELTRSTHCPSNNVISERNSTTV

## C3a C3a (from UniProt P01024)
  Kd: 1 nM
